Assay results as given in a protein production outcome set (Wang et al. 2014).

Assay: label from the status in PepcDB records
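Further: failed if final PepcDB status was selected cloned or expressed and not failed if soluble or beyond.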

Sequence	protein production
MYDYSILPNRIILCVDLRSFYASVSCIKMGLDPMHTKLAVVGDVNRNGSIVLAATPPLKALGVKKMARLYEIPRRKDILVVNPIMSTYIKCSNYITKLALQYVPIEDFHQYSIDEFFMDITDSIHLFAQDPYEFAMKFKREIYDHTRIECTIGIAPNPLMSKVALDIEAKKNKDGIAFWQYEDIPTKLWSIRPLNKFWGISYKTEEKLNRKGIYSIGDLANYPLKYLKQSFGKIGEELHLHSHGIDFSRISEKYVPATTSIGKSQILMRDYTIEEFPIILLEHIEEVCYRLRRQTKLAQTIHFSVGYSKSYTGGIRKTHTLNRPTNLTMDIYHICTYFLHQQYTGEPIRSINISLTNLIQEGEEQISLFDNVTKREQEMKLTKVMDEIRTKFGKNSILRGISYTHSATARHRNTLIGGHKS	failed
MYELERTVFQELFRRVLDNQYQVTPEERKALVQCDNSIVRRGIFSALTSFSLIYYGLKQFQKHFNASSSLRLRPAIPATLLGLTTGFFYGRTAAPGCLQNLMNVPNSAVAEEVKIIIRELYEQSPSSTTGQTIATRYGFLLDSTTVPMKISDVGFGDNENSDWKEVDTWQSDNSIYQGTVQKRVGPRNSDKRRVIRPNDKVENHIHQDALANSTSSLPSNETDYGFASLPGYSSSQSDSDVLESWDIGNDNQQENTNNEPNVKKESHRRRRRNEFRKSNGQVKSLESDPTEQGTIQTDTKDLLSSRQDTDALWDSSFSGKGSSATAF	failed
MYETFMKRAIELAKKGLGRVNPNPPVGAVVVKDGRIIAEGFHPYFGGPHAERMAIESARKKGEDLRGATLIVTLEPCDHHGKTPPCTDLIIESGIKTVVIGTRDPNPVSGNGVEKFRNHGIEVIEGVLEEEVKKLCEFFITYVTKKRPFVALKYASTLDGKIADHRGDSKWITDKLRFKVHEMRNIYSAVLVGAGTVLKDNPQLTCRLKEGRNPVRVILDRKGVLSGKVFRVFEENARVIVFTESEEAEYPPHVEKALSDCSVESILRNLYERDIDSVLVEGGSKVFSEFLDHADVVFGFYSTKIFGKGLDVFSGYLSDVSVPPKFKVVNVEFSDSEFLVEMRPCSRE	not failed
MYILIGGMGSMGSNLAKNLLKMGHTVAAVDTDPLACQYAREKIGVMAFEGSAVNTSVLLEAGVRKAGAVIAALQEDALNLALVTLSKHYGVPQIVVRMSDGDFAEPYRLAGATHIISTTELALNRVINAIEYPQVDAMMHFEQGQIEVLKLSIPPNCTIVGRSVAAIAQDPRFPSGTLIIGYQANAHEDLKIPNGNTLLEDGSTILAVTKPELVRQLIDFMGLCQS	failed
MYIPNAFRESDTHNLQEHMDKTRLAILVTQGDDGLHATHLPLLLRSDEGPYGTLYGHMAKANPQWQQLNADAEAMVIFPGEDAYVSPSFYPSKAEHGKVVPTWNYLAVHAYGQAECFTDPDRLHQLLNDLTDRHESSRAQPWSINDAPADYIAKMLGAIVGFSIPVQRL	failed
MYKRRVDPELEDLTSRAREALALFISISLRDNTELNLVVPNGPSWLSHVDKKDLYLNDETLKKITDILVAKDVTGNYNIVNVAIAAAPQHSQKRFVIYIKTSIYVEIVVIGNMKSNLTLIADGQDSTIITFNLSSSNSKRTFNTATFASNGDGFIRVDMCFRNTTWPVKGPVVTLRVNGDMSIIYRCRVEEYQDALYPHKNRQCYREYFLMDTVDFICGNAAAVFQFCQIVHMDG	not failed
MYLEKLQQWRYATADFSGAHITDDVLDKLLNTTRLTASSYGLQPYCTLVIRNKGLREQLVNHSFGQQKVADSSALVIFAAKTGAVADIVDPYISELSQQRQLTNEEAENTRNYFTQKLQAMSAATRKEWAVRQAYIGLGTFLLAAAELEVDSCPMEGIEHDAYDNILSLKDLGLSTVFACPVGYRSEADTTQFQKKVRQPLSRFKVVL	not failed
MYLLTFILIRINKYSDKAKKSAILVLLFLSLGAILKILEIADPSVKMDYIIQLVYSLTVFGAFVALSFYIKFLETPPSLTVHHSTKLPKNGGSEPKLVGAYLVSGSRSRIVDLINMIRELNAPILVFTRYPTFYQDLGENIKVIWITQASEDGIPPTKLHVIQDYAIKFAKENKYAVVIIDCVEYLLLYNEFASVFKFLASLKDYLIMMNSALVLAVDEKALDEKYYTLLLNEFEPL	failed
MYLQCYINEKGEKVYTTKKESPLGLATESAHPARFSPDDKYSKQRVLLKKRFGLLPTQNAPLQY	failed
MYMAQPGHIDHIKQINAGRVYKLIDQKGPISRIDLSKESELAPASITKITRELIDAHLIHETTVQEAISRGRPAVGLQTNNLGWQFLSMRLGRGYLTIALHELGGEVLIDTKIDIHEIDQDDVLARLLFEIEEFFQTYAAQLDRVTSIAITLPGLVNSEQGIVLQMPHYNVKNLALGPEIYKATGLPVFVANDTRAWALAEKLFGHSQDVDNSVLISIHHGLGAGIVLDGRVLQGRHGNIGELGHIQIDPQGKRCHCGNYGCLETVASSQAIRDQVTARIQAGEPSCLATVEEISIEDICAAAADGDPLAVDVIQQLGRYLGAAIAIVINLFNPEKILIGGVINQAKSILYPSIEQCIREQSLPVYHQDLKLVESRFYKQATMPGAALIKQALYDGLLLMKVVEG	not failed
MYPKQFLKFGETSLFQETVLRCLEVSDISEVFVVTNEAQKFFVIGQIKEAGYSIPPENILIEPEGKNTLPAIFFGMKEIEKKFGDSIVGVFSSDHVLDRAAMATISSAENLASDYLVTFGVVPTFPHTGYGYIKASEACSPGYRVSEFREKPDFETAKKYIEEGCLWNSGMFLFETRLFFEEARKHAPSVYGCFEKEGDINQIYECVDNISIDYGIMEKSDKVAVVRLDHKWSDLGNFAAIYDELEKDSVGNVIHDCDPMLLNSDGNLVYSRCGKIVSLIDVKDMVVVDTSDALLICPKSSSQKVKEIVSELKGRKDERAFIGQTVYRPWGSYTLLDASPGHKIKNITVLSDHKLSLQLHYHRSEHWVVVKGMACVEVDGKQFFLGPGESTFIRAGQKHRLSNPGKLPLEIIEVQLGELVDEEDIVRFDDVYGRRLEHHHHHH	not failed
MYPVDLHMHTVASTHAYSTLSDYIAQAKQKGIKLFAITDHGPDMEDAPHHWHFINMRIWPRVVDGVGILRGIEANIKNVDGEIDCSGKMFDSLDLIIAGFHEPVFAPHDKATNTQAMIATIASGNVHIISHPGNPKYEIDVKAVAEAAAKHQVALEINNSSFLHSRKGSEDNCREVAAAVRDAGGWVALGSDSHTAFTMGEFEECLKILDAVDFPPERILNVSPRRLLNFLESRGMAPIAEFADL	not failed
MYQKFKGGDLMIHGGDIYTEGVFKGRELLDYSSNINPLGIPKSFLNNIDEGIKNLGVYPDVNYRRLNKSIENYLKLKDIGIVLGNGASEIIELSISLFEKILIIVPSYAEYEINAKKHGVSVVFSYLDENMCIDYEDIISKIDDVDSVIIGNPNNPNGGLINKEKFIHVLKLAEEKKKTIIIDEAFIEFTGDPSSSFVGEIKNYSCLFIIRAMTKFFAMPGIRFGYGITNNKEIAAKIKAKQNPWNINCFAEMAAINCLKDTNYIEESLLWIKKERKRFIEELNKIGFIKRVFSPHANFVLCRLENISGEKLYDSLLKEDIVIRRCCNFIGLDDSFVRFAIKDEKKNTKFLRALKGVENNL	not failed
MYQVVASDLDGTLLSPDHFLTPYAKETLKLLTARGINFVFATGRHYIDVGQIRDNLGIRSYMITSNGARVHDSDGQQIFAHNLDRDIAADLFEIVRNDPKIVTNVYREDEWYMNRHRPEEMRFFKEAVFNYKLYEPGELDPQGISKVFFTCEDHEHLLPLEQAMNARWGDRVNVSFSTLTCLEVMAGGVSKGHALEAVAKMLGYTLSDCIAFGDGMNDAEMLSMAGKGCIMANAHQRLKDLHPELEVIGSNADDAVPRYLRKLYLD	not failed
MYRDRIRLPSLMSKVMSAADAAALIEDGMTVGMSGFTRAGEAKAVPHALAERAKVTPLKISLMTGASLGNDLDKQLTESGVLSRRMPFQVDSTLRKAINNGTVMFIDQHLSDTVELLRNRQIKAVDLAVIECVAITEEGHLVLSTSVGNSASFAILAKQVIVEINLSQPLELEGLHDIYIPSYRPTRLPIPVLEADSRIGSHAVKIDPAKIVGIVISNQPDSPSTVTPPDADTQAIANHLVEFFKKEVREDRLTDKLMPLQAGIGNIANAVMHGLLESPFTDLTMYSEVLQDSTFDLFDAGKLTFASGSSMTLSAAKHAEVFADFNRYKSRLVLRPQEISNHPEVIRRLGIIGINTALEFDLYGNVNSTHICGTRMMNGIGGSGDFSRNAHLAIFVTKSIAKGGAISSVVPMVSHVDHTEHDVDILVTEQGLADLRGLAPRERARVIIDNCVHADYRDALNAYFDAACALGGHTPHILREALSWHINLEENGRMLPT	failed
